Measured values as given in paper PMC4841555 (2016).

Target: Amyloid-beta(1-42) Aβ(1-42) (Homo sapiens, UniProt P05067)
Assay: BLI

Binder	Kd
RPITRLRTHQNRRPITRLRTHQNR [DB3DB3]	1 µM
RPITRLRTHQNR [DB3]	75 µM
